The text below walks through data of publication PMC3988174.

B1: Oxygen-evolving enhancer protein 3-2 (natural protein)
chain: MAQAVTSMAGLRGASQAVLEGSLQINGSNRLNISRVSVGSQRTGLVIRAQQNVSVPESSRRSVIGLVAAGLAGGSFVKAVFAEAIPIKVGGPPLPSGGLPGTDNSDQARDFSLALKDRFYIQPLSPTEAAARAKDSAKEIINVKSFIDKKAWPYVQNDLRLRASYLRYDLNTVISAKPKEEKQSLKDLTAKLFQTIDNLDYAARSKSSPDAEKYYSETVSSLNNVLAKLG
B2: GLNB1-like protein (natural protein)
chain: MAASMTKPISITSLGFYSDRKNIAFSDCISICSGFRHSRPSCLDLVTKSPSNNSRVLPVVSAQISSDYIPDSKFYKVEAIVRPWRIQQVSSALLKIGIRGVTVSDVRGFGAQGGSTERHGGSEFSEDKFVAKVKMEIVVKKDQVESVINTIIEGARTGEIGDGKIFVLPVSDVIRVRTGERGEKAEKMTGDMLSPS
B3: Ferredoxin-thioredoxin reductase subunit A (natural protein)
chain: MNLQAVSCSFGFLSSPLGVTPRTSFRRFVIRAKTEPSEKSVEIMRKFSEQYARRSGTYFCVDKGVTSVVIKGLAEHKDSYGAPLCPCRHYDDKAAEVGQGFWNCPCVPMRERKECHCMLFLTPDNDFAGKDQTITSDEIKETTANM
B4: Putative 3-dehydroquinate synthase (natural protein)
chain: MAANTISLSNVAASKNLNSFQSRAFIAPPTIFFPVASAKSKPGELSLSSTTLSRSRVRAGASQLMNEPLNDQRSISSPTVVEVDLGDRSYPIYIGAGLLDHSELLQRHVHGKRVLVVTNDRVAPLYLDKTIDALTRGNPNVTVESVILPDGEKYKDMDTLMKVFDKAIESRLDRRCTFVALGGGVIGDMCGYAAASYLRGVNFIQIPTTVMAQVDSSVGGKTGINHRLGKNLIGAFYQPQCVLVDTDTLNTLPDREMASGLAEVIKYGLIRDAEFFEWQEKNIEALLARDPAALAFAIKRSCENKADVVSQDEKESGLRATLNLGHTFGHAIETGFGYGEWLHGEAVAAGTVMAVDMSYRLGWIDESIVKRVNKILVRAKLPTTPPESMTVSMFKSIMAVDKKVADGLLRLILLKGPLGNCVFTGDYDREALDATLRAFSKS
B5: 5′-Adenylylsulfate reductase 2 (natural protein)
chain: MALAVTSSSTAISGSSFSRSGASSESKALQICSIRLSDRTHLSQRRYSMKPLNAESHSRSESWVTRASTLIAPEVEEKGGEVEDFEQLAKKLEDASPLEIMDKALERFGDQIAIAFSGAEDVALIEYARLTGKPFRVFSLDTGRLNPETYRLFDAVEKQYGIRIEYMFPDAVEVQALVRNKGLFSFYEDGHQECCRVRKVRPLRRALKGLKAWITGQRKDQSPGTRSEIPIVQVDPVFEGLDGGVGSLVKWNPLANVEGADVWNFLRTMDVPVNALHAQGYVSIGCEPCTRPVLPGQHEREGRWWWEDAKAKECGLHKGNIKEEDGAADSKPAAVQEIFESNNVVALSKGGVENLLKLENRKEAWLVVLYAPWCPFCQAMEASYIELAEKLAGKGVKVAKFRADGEQKEFAKQELQLGSFPTILLFPKRAPRAIKYPSEHRDVDSLMSFVNLLR
B6: Photosystem II subunit T (natural protein)
chain: MASMTMTATFFPAVAKVPSATGGRRLSVVRASTSDNTPSLEVKEQSSTTMRRDLMFTAAAAAVCSLAKVAMAEEEEPKRGTEAAKKKYAQVCVTMPTAKICRY
B7: Protochlorophyllide oxidoreductase B (natural protein)
chain: MALQAASLVSSAFSVRKDAKLNASSSSFKDSSLFGASITDQIKSEHGSSSLRFKREQSLRNLAIRAQTAATSSPTVTKSVDGKKTLRKGNVVVTGASSGLGLATAKALAETGKWNVIMACRDFLKAERAAKSVGMPKDSYTVMHLDLASLDSVRQFVDNFRRTETPLDVLVCNAAVYFPTAKEPTYSAEGFELSVATNHLGHFLLARLLLDDLKKSDYPSKRLIIVGSITGNTNTLAGNVPPKANLGDLRGLAGGLNGLNSSAMIDGGDFDGAKAYKDSKVCNMLTMQEFHRRFHEETGVTFASLYPGCIASTGLFREHIPLFRALFPPFQKYITKGYVSETESGKRLAQVVSDPSLTKSGVYWSWNNASASFENQLSEEASDVEKARKVWEISEKLVGLA
B8: Photosystem II subunit X (natural protein)
chain: MASTSAMSLVTPLNQTRSSPFLKPLPLKPSKALVATGGRAQRLQVKALKMDKALTGISAAALTASMVIPEIAEAAGSGISPSLKNFLLSIASGGLVLTVIIGVVVGVSNFDPVKRT
B9: Light-Harvesting Chlorophyll-Protein Complex I Subunit A4 (natural protein)
chain: MATVTTHASASIFRPCTSKPRFLTGSSGRLNRDLSFTSIGSSAKTSSFKVEAKKGEWLPGLASPDYLTGSLAGDNGFDPLGLAEDPENLKWFVQAELVNGRWAMLGVAGMLLPEVFTKIGIINVPEWYDAGKEQYFASSSTLFVIEFILFHYVEIRRWQDIKNPGSVNQDPIFKQYSLPKGEVGYPGGIFNPLNFAPTQEAKEKELANGRLAMLAFLGFVVQHNVTGKGPFENLLQHLSDPWHNTIVQTFN

Sequence of atToc132 G-domain bait (Arabidopsis thaliana) (Q9SLF3 456-794): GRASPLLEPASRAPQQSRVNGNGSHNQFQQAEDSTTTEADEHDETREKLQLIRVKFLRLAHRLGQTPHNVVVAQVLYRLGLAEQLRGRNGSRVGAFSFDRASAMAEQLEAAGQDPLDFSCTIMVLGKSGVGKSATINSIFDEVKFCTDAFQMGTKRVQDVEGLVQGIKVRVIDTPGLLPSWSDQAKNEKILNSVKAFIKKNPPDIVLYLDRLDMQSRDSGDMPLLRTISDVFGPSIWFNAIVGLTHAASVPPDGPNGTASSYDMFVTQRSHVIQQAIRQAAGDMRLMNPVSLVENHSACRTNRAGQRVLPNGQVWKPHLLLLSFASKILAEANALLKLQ

The first assay addresses atToc132 G-domain bait (Arabidopsis thaliana) (UniProt Q9SLF3). The assay can be described thus: two-hybrid; pairwise split-ubiquitin yeast two-hybrid of isolated NubG-preys with Toc159G, Toc132G or Toc132AG bait in NMY51; growth on SD-LWHA (3-AT) and quantitative β-Gal assay, activity relative to a reference bait set to 100%.
As for B1, the % increase in strength of interaction (β-Gal) with 132G against 159G amounted to 20%.
As to B2, the % increase in strength of interaction (β-Gal) with 132G against 159G was found to be 39.8%.
For B3, the % increase in strength of interaction (β-Gal) with 132G against 159G amounted to 45.2%.
As to B4, the % increase in strength of interaction (β-Gal) with 132G against 159G worked out at 27.8%.
Still for that read-out and setting: as for B5, the figure is 44.7%.
The same measure, in the same setting: as for B6, the figure is 28.9%.

In another assay the target is atToc159 G-domain bait (Arabidopsis thaliana) (UniProt O81283). The assay is described as above.
Sequence of atToc159 G-domain bait (Arabidopsis thaliana) (O81283 728-1092): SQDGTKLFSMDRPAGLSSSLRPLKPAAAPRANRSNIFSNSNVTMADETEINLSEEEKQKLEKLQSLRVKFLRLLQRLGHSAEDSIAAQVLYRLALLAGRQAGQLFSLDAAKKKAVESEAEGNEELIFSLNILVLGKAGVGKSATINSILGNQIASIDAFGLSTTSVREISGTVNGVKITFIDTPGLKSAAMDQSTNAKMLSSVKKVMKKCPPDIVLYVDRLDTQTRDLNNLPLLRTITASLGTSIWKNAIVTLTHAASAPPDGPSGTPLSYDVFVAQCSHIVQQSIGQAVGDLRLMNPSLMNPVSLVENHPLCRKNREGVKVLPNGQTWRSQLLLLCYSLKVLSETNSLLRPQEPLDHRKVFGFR
Turning to B7, the % increase in strength of interaction (β-Gal) with Toc159G against Toc132G was 40.5%.
On the same count and under the same terms, as for B8, the figure is 24%.
Take B9: the % decrease in strength of interaction (β-Gal) with Toc159G against Toc132G was -38.5%.
